Assay results reported in patent US20190134213A1 (Bicycle, published 2019).
Starred links: 1 amine or outer side, 2 acyl side, 3 side chain; linkers in the order of their positions; H or OH if unused. Positions of bridges follow the written chain, without caps; N, C: chain ends. Non-standard residues stand in square brackets, D forms with d. Sar10 = ten sarcosines (spacer), CN(CC(=O)N(C)CC(=O)N(C)CC(=O)N(C)CC(=O)N(C)CC(=O)[*:2])C(=O)CN(C)C(=O)CN(C)C(=O)CN(C)C(=O)CN(C)C(=O)CN(C)[*:1]; SMPP‑derived hindered disulphide linker = hindered disulphide linker derived from SMPP, with two methyl groups, carrying the toxin DM1; 1Nal = N[C@@H](Cc1cccc2ccccc12)C(=O)O; TBMB = c1c(C[*:1])cc(C[*:3])cc1C[*:2]; Tle = CC(C)(C)[C@H](N)C(=O)O; βAla = NCCC(=O)O; DM1 = toxin

B1: 17-69-07-N241 (peptide)
peptide: H-[βAla][Sar10]AC[dA]NE[1Nal][dA]CEDFYD[Tle]C-NH2
modifications: linker 4-10-17 via TBMB
SMILES: C[C@H](NC(=O)CN(C)C(=O)CN(C)C(=O)CN(C)C(=O)CN(C)C(=O)CN(C)C(=O)CN(C)C(=O)CN(C)C(=O)CN(C)C(=O)CN(C)C(=O)CN(C)C(=O)CCN)C(=O)N[C@H]1CSCc2cc3cc(c2)CSC[C@H](NC(=O)[C@@H](C)NC(=O)[C@H](Cc2cccc4ccccc24)NC(=O)[C@H](CCC(=O)O)NC(=O)[C@H](CC(N)=O)NC(=O)[C@@H](C)NC1=O)C(=O)N[C@@H](CCC(=O)O)C(=O)N[C@@H](CC(=O)O)C(=O)N[C@@H](Cc1ccccc1)C(=O)N[C@@H](Cc1ccc(O)cc1)C(=O)N[C@@H](CC(=O)O)C(=O)N[C@@H](C(C)(C)C)C(=O)N[C@H](C(N)=O)CSC3
notes: Synthetic bicyclic peptide cyclised on TBMB; precursor of BT17BDC-28; also called bAla-Sar10-A-(17-69-07) D-Ala1 1Nal4 D-Ala5 tBuGly11; (bAla)-Sar10-AC(D-Ala)NE(1Nal)(D-Ala)CEDFYD(tBuGly)C
B2: 17-69-07-N268 (peptide)
peptide: H-AC[dA]NE[1Nal][dA]CEDFYD[Tle]C-NH2
modifications: linker 2-8-15 via TBMB
SMILES: C[C@H](N)C(=O)N[C@H]1CSCc2cc3cc(c2)CSC[C@H](NC(=O)[C@@H](C)NC(=O)[C@H](Cc2cccc4ccccc24)NC(=O)[C@H](CCC(=O)O)NC(=O)[C@H](CC(N)=O)NC(=O)[C@@H](C)NC1=O)C(=O)N[C@@H](CCC(=O)O)C(=O)N[C@@H](CC(=O)O)C(=O)N[C@@H](Cc1ccccc1)C(=O)N[C@@H](Cc1ccc(O)cc1)C(=O)N[C@@H](CC(=O)O)C(=O)N[C@@H](C(C)(C)C)C(=O)N[C@H](C(N)=O)CSC3
notes: Synthetic bicyclic peptide cyclised on TBMB; lacks the bAla-Sar10 spacer of 17-69-07-N241; Precursor of BT17BDC-27; also called A-(17-69-07) D-Ala1 1Nal4 D-Ala5 tBuGly11; AC(D-Ala)NE(1Nal)(D-Ala)CEDFYD(tBuGly)C
B3: BT17BDC-27 (peptide)
peptide: {DM1-SMPP‑derived hindered disulphide linker}-AC[dA]NE[1Nal][dA]CEDFYD[Tle]C-NH2
modifications: linker 2-8-15 via TBMB
notes: also called Bicycle Drug Conjugate of 17-69-07-N268 with DM1
B4: BT17BDC-28 (peptide)
peptide: {DM1-SMPP‑derived hindered disulphide linker}-[βAla][Sar10]AC[dA]NE[1Nal][dA]CEDFYD[Tle]C-NH2
modifications: linker 4-10-17 via TBMB
notes: also called Bicycle Drug Conjugate of 17-69-07-N241 with DM1

Key:
[1] = target: T1, MT1-MMP hemopexin-like repeats (MT1-MMP hemopexin domain), residues Cys319-Gly511 from the human gene, … (human, UniProt P50281 319-511); test: fluorescence polarisation competition with a fluoresceinated bicyclic tracer on MT1-MMP hemopexin domain
T1 construct: range 319-511; Secreted soluble protein expressed in HEK293 cells, purified by Ni-NTA and gel filtration; also called hemopexin of MT1-MMP; MMP14
From the text: (§1) Here, a pre-formed complex of PEX with the fluorescent PEX-binding tracer is titrated with free, non-fluoresceinated bicyclic peptide. Since all 17-69-based peptides are expected to bind at the same site, the titrant will displace the fluorescent tracer from PEX. Dissociation of the complex can be measured quantitatively, and the Kd of the competitor (titrant) to the target protein determined. The advantage of the competition method is that the affinities of non-fluoresceinated bicyclic peptides can be determined accurately and rapidly.
(§2) Subsequently, the non-fluorescent competitor bicyclic peptide (usually just the bicycle core sequence) is titrated, such that it displaces the fluorescent tracer from the target protein. The displacement of the tracer is measured and associated with a drop in fluorescence polarisation. The drop in fluorescence polarisation is proportional to the fraction of target protein bound with the non-fluorescent titrant, and thus is a measure of the affinity of titrant to target protein.
(§3) The raw data is fit to the analytical solution of the cubic equation that describes the equilibria between fluorescent tracer, titrant, and binding protein. The fit requires the value of the affinity of fluorescent tracer to the target protein, which can be determined separately by direct binding FP experiments (see previous section). […]

[2] = target: T1, MT1-MMP hemopexin-like repeats (MT1-MMP …); test: fluorescence polarisation competition, tracer 17-69-07-N040, human MT1-MMP hemopexin domain (n = 2)
From the text: as §1, §2, §3

Row | Binder | Kd [1] [nM] | Kd [2] [nM]
1 | B1 | 1.21 | 
2 | B2 | 1.7 | 
3 | B3 |  | 0.69
4 | B4 |  | 1.65
